Assay results published in publication PMC7105229.
Like-named read-outs stand apart in the source and are kept apart here.

Experiments:
[1] = molecular target: Vibrio vulnificus FAN1 (Vibrio vulnificus); assay: SEC
[2] = molecular target: Vibrio vulnificus FAN1 (Vibrio vulnificus); assay: SEC; remark: listed apart in the source

With Vibrio vulnificus FAN1 (enzyme) the stoichiometry N [1] was 2 and the stoichiometry N [2] was 2.
